In the DeepSol protein solubility set:

Assay: soluble on expression in E. coli; label from the status in PepcDB or PDB records

Row | Sequence | soluble on expression in E. coli
1 | MTKPVVDVKNVQKVYGKKGENQSHALKGVSFSIQEGEFVGIMGPSGSGKTTLLNVISTLDKATGGVVEIAGTDITKMKQGELSDFRSQKLGFIFQDFNLLENLSIYENIALPLSLQGVPSRNIGPKVEKVADMLGISAILQKYPSEVSGGQKQRSAAARALVHEPAIILGDEPTGALDSKNATSLLDAMTNLNQEQGVSIMMVTHDPFSASYCQRILFIQDGELYKEIHRGGTREEFYKEILDVLADLGTQKA | not soluble
2 | MGSDKIHHHHHHMFSQTIFFGMKQSARGVSVAFSTLQEASMHKRVLIQAASALLALQFMAVPVFAAGSSGGGSDQTVTQCKKGEVWDKKKKKCVAPQEGMLDDDSIYDAGHALAMAGRYDEAISVLTLAANKQDPRILNYLGYSHRHSGRVTVGLGYYEEALRIDPNYTLVREYLGEAHLQIGDLAGAQQQLMEIEKRTGKGSREYGMLSEQIDHFMRS | not soluble
3 | MGSSHHHHHHSSGRENLYFQGMVDADGIYYLGPEGSFTHEAASLFKGKDLKAESTISLVFKRVYERESSIGIVPIENSLEGPVNETLDNLYNYDNIYVIGEIEKKIELVLAARSDNLSQIKRIYSHPHAFNEAREKLKELGFNEYIPVESTSKAAKIVSQDSEAAAICSNFAAKLYNLKVLITISSHNNYTRFIVLSKEMNSNGNKSMILFTVPHKPGALYKVLQVFYEYNINISMIYSRPLKSIPWQYYFYLEYEGGISNREFIEKLVKSTSVLKIKGSFSKLNNDPGF | soluble
4 | MGRMNVSMMRYLEGDHFRVLIAVEMGMKNHEVVPLALVSAIAGIHRGGVARTLNDLCKHSLVAFERSKKFDGYRLTIRGYDYLALRALCSREVVGSVGNQIGIGKESDVYVGGDPELNDLCLKFHRLGRTSFRKIKEKRDYHKKRKSASWLYLSRLAAAKEFAFLKALQERGFPVPKAVDVCRHLVVMQLVVGQTLCNVTHVEDAGALYDRLMALIVKMARHGVIHGDFNEFNLIMLEDERIVMIDFPQMVSIDHPNAEYYFDRDVTCVRTFFKRKFDYESEDWPKFDEVERKGNMDVLLEASGFTKKMALDLNKAYDEGDFLAHCEQELRNRQEEDLGEDEDDSDDSKSMEDIQEEPEDLEKDHEELQAQENTVKQQKIVLSQTTRFTDWLSDATNQLEAVDLDALKSEEGYKDIELPPEDFKRPADSENDDENDEDEEEGEEEDADGHVAVEEQVAKVVKKKRVPSGARSVASSAATFTAEDVKRRLALDRKRNKEKIRLKVKGKQSAVGRNRKDNKDVIAEYAGWI | not soluble
5 | MSLLAYTYIEHGKFELREKPEPKITDARDAIVRVTLGSICTSDLHIKHGSVPRAVPGITVGHEMVGVVEEVGAEVTSVRPGDRVTVNVETFCGECFFCHHGYVNNCTDPNGGWALGCRIDGGQAEYVRVPYADQGLNRIPDTVSDEQALFVGDVLATGFWATRISEITEKDTILLIGAGPTGICTLLCSMLKNPKRIIVCEKSPERIQFVREHYPDVLITTPENCKEFVLQNSDHSGADVVLEVAGTEDSFRMAWDCARPNAIVTIVALYDKPLLFPLPEMYGKNLTFKTGGVDGCDCAEILSLIEEGKIDTTPLITHRCSLNEIEEAYRIFENKLDGVIKVAIVCQTESEGHHHHHH | soluble
6 | GPGSMSGSTQRAEQQRRIQQLHERLELYNIADRHTDPTSNSAGGVGFASAGGLETGGGDKAPTTKPSRAAPMSGSPNLKPTSAPTSNAFFFTSSLPRRAADAGAPSSTLGLQQGNGSGSRATAAPSATEIAEVSRASPTPQQQPQVQMPPPAPAPQLARNLAQEFFGSAASPTHASPTRAASRSSAMTSGAAASPVAPERPSVTAAYPESATEATAAATAAKAGSPPLAANVFDYYEDFKSDGSEGDEYEVEEVEECMEDEEDYVGDGEDTDEHARGKASLTLEDVLRRLHRACSGSVDHAAAASPLEQAMAAASASSPLARDPSLATATPAAAAATRVTLTAAAASPIGTTYPFLQQATEVYRQRHLYKATQEHQQHHSPFNTGYAWSTDEETSVTDTSTSEPTEGLGDASESRSASVSSSASAASKGHLTAANAAAAVQNSGLLAAALQPLADTAIATPTASDRASAEKVLPSSALCFDQLETAYRRLLILQQGAKYVSELAGPECFPRPLPRQEEARALAEQRDMVVKRDTEMRAAPPAGSSLEDLRQRESAAIERTLGLLREKFDAAMKSLKPVADREAAIEGKRRTLKQRELDIAKQREARLIVEREVAAAEKRLMERSEQLRKREEDYSARLQQHDHQQKAAQEQIGEVEQLSKQVSSWLAILEERDRRLARKEKRLQRVQADLLKRTEDIIVWKRATQRIKQIPPPPSPPRIS | not soluble
7 | MNIFYEESGQFKIAAIIQKNDATYQVDTPHGKRTKVKANNVFAEFDGDMAAFLENAQAQAADIDTDLLWEVCGEEEFTAEAIAEEYYGHAPTKTELAATLIALYAAPMYFYKKAKGVFKAAPEETLKQALAAIERKKQQDAQIDAWAEALKRGEMPSEIAADLKTILHAPDKQSLTYKAFTKAADALKTSAYELAKKTGGITSIPQYLQDGFEIKYFPKGTGFPDLALPEMPDLPKADVTAFSIDDESTTEVDDALSLTDLDNGTKRVGIHIAAPSLAVKPGDKMEKNIMERLSTVYFPGGKITMLPENWIAAFSLDAGAHRPAVSIYFDVDGEFNVGAPTCKIEAVNIATNLRIQAIEPHFNAETGLDEAGEMMFAHHQDLIWFYQFATALQKARGKYEPDRAPQYDYSIELDEEGKVSVVRRERGSPIDTLVSEMMILANSTWAQMLHDNDLPGLFRVQPTGKVRMSTKSEPHIGMGVQHYGWFTSPLRRAADYINQKQLISLIDDTAEPLYQNSDAELFAALRDFDAAYTAYADFQRQMEAYWSLVYLQQQGTSELTATILKEDLVRIEGLPLVTRATGIPFDALPKSQALFKITELDAEKQFVSLNYIKAVAPAGTTAGNAV | not soluble
8 | MGSSHHHHHHSSGLVPRGSHMGEMLERQKKRLPSKAKYLKYTASITETGNHEADSSVIFRPHHSDVTCSNARRAESRTLPQICSCILLDHGRRTRPEVRTGMVSLHGSFKGFPCFGIRRGISHVLPGQKLRGSCDNWKKRQN | soluble
9 | MTLTTTLTTGLALLLAAQALPAPASAAPAAVGSVTIGWADATHELIKITWTETTAAANTLTLHTDDPETAAVRFGTTTADQPNEYLVDPTQLGYTADPRHTSWILVSDGTATTARSVDFDRFHHAQRGAALSFAGDRVRWTAPADTSVDGTPGDPLDLPKAYTYQPMQRVDDDPVGNYECKDTELPATTERTGLVPNPGTAYDLFLTMTNEWGTADVGYLQVGTTQTVTADGPAATAYGATTTIKGHAEGTVMFEQGRPPVCDEVRVDLSNQPLTVQQRTSSTAPWTVVGTVRTTVNGDYTAVVKNPGHRQYRVVRPNTAAFESAWYGGTSGVITVRSLTRVVSAKFIQPVVRLGTRPQAYLWVDPAGTQKAALQFRNAAGAWQGVTYKTLYAGRGLVSFPWNRRGTTRFRWWVPASGGAESVVSPVFTVTVT | not soluble
10 | MAIELHGAISPQDDGSFDSKTLGTICWGDHNNVYMVIGNQTLEGKISKIDRPLLVIQKSDKNHQENGEKNATVNAVIRKKLVFKTRPRPLVLSTVV | soluble
11 | RDISVMVLLDLSESTNNQVNGQEFTVLDLTRQATVLLADAINRIGDPFAIHGFCSDGRHDVEYYRFKDFDQPYNEVPKMRLAGMTGQLSTRMGAAIRHASHFLKLQRAAKKLLLVITDGEPADVDVRDPQYLRFDTKKAVEEAGRSGILTYCMSLDPRADQYVSRIFGMRNYMVVDHVERLPEKLPMLYAGLTR | not soluble
12 | MSNQKLSDGGACCSPLAREPLTEDWAGDLARMFKALGDPVRLRLLSLIASHAGGEACVCDISESFDLSQPTISHHLKVLRAAGLLDCERRGTWVYYWVIPSALQQLSAVLLTESGTAVPSPTCAEARA | not soluble
13 | PMDDIVRIHASSGTTGKPTVVGYTRKDIEIWSELMARSFAAAGVHKGDIIHNAYGYGLFTGGLGAHYGAERLGASVIPMSGGNTKKQIMIMKDFGSTVLTCTPSYSLFMAEAAREEGVDFRQLKLHVGIFGAEPWSESMRAEIEQKLNLCAIDIYGLSEIMGPGVAIECREAKKGLHI | not soluble
14 | GSSGSSGMEAVLNELVSVEDLKNFERKFQSEQAAGSVSKSTQFEYAWCLVRSKYNEDIRRGIVLLEELLPKGSKEEQRDYVFYLAVGNYRLKEYEKALKYVRGLLQTEPQNNQAKELERLIDKAMKKSGPSSG | soluble
15 | MAGEAGQPSEPLNLLAGMAAAPWDYDFFQALRRIECESPQLPRLGHSVRLADDPLRLGQKPDCTFAPSTLASVSQAGTAAVPRLDQFFFGLTGPNGPLPLHLTEYARERQRNVNDATFKRFMDVFHHRLLTLFYRAWAEARPEISHDRIDDDYWSARLAALSGRGMPSLRGREPLADTARYYYTGHLAAQTRYPDGLRVILAEYFEVPVAVEEYVGQWLELPERSRLGVDSTSLGMDVCLGTHVWDRQHKFRLRLGPLDLDQYQRFLPDGDHFVELAAWVAEYLGEELDWDVNLVLQRHEVPPLGLQGGGRLGFNTWLGDPGQDARDLLLARQYATARPHEHKEKEHE | not soluble
16 | EYKPKKGLASCWLSSKSHTLLNEEDFFTKDERIGIRKDYEGATNDDAFFCQRYYRFKNFKEVEGEKTKVCKQPPVREHDFCFAVLLETHRDIKHEELNKRIVYLGGERQPFLMDLMEVSEETFKLNIESSTLTSDEKHYTVVLLSDAMIEPKLLEGVKFASTEVKDFACLLTHVGTRRFYNKKKKREEQNIEEVETALSHQHELYARGSVFYFDTKEQANQFCEDLEKVPNFHTIGYNHAIIIEPTKTKK | not soluble
17 | MGHHHHHHSHMKYYRRALYDKFVHFYLVISDDGSSEAQLRGKMGGLVRKARKKISPDWPKEEQIHQLLQLFYGDWGFHCDPEDYFYARNLYLPYVFEHRQGMPVTLGAMVFYLAEALDLPIYPVNFPTQLILRAEVRDEVAFIDPWDGTYISQEKLQQLYEGAFGFGAKIQPEELDRADLSLLYSRFEQLAKNALIREEHNDMAYHYIKNLMITDAENPYHIRDRGLVLAQMGAYPSALKDLEFFVEHCPKDPTAAFIRTQLLELKGEINKDTFPLH | soluble
18 | ATTYNAVVSKSSSDGKTFKTIADAIASAPAGSTPFVILIKNGVYNERLTITRNNLHLKGESRNGAVIAAATAAGTLKSDGSKWGTAGSSTITISAKDFSAQSLTIRNDFDFPANQAKSDSDSSKIKDTQAVALYVTKSGDRAYFKDVSLVGYQATLYVSGGRSFFSDCRISGTVDFIFGDGTALFNNCDLVSRYRADVKSGNVSGYLTAPSTNINQKYGLVITNSRVIRESDSVPAKSYGLGRPWHPTTTFSDGRYADPNAIGQTVFLNTSMDNHIYGWDKMSGKDKNGNTIWFNPEDSRFFEYKSYGAGATVSKDRRQLTDAQAAEYTQSKVLGDWTPTLP | soluble
19 | MTISRTQQIQQLEQEWTSPRWKNITRPYSAEDVIKLRGSVNPECTFAQNGAKKLWELLHGGSRKGYINCLGALTGGQALQQAKAGVEAIYMSGWQVAADANTASSMYPDQSLYPVDSVPAVVKRINNSFRRADQIQWSNNIEPGSKGYTDYFLPIVADAEAGFGGVLNAFELMKAMIEAGAAGVHFEDQLAAVKKCGHMGGKVLVPTQEAIQKLVAARLAADVLGVPTLLIARTDADAADLLTSDCDPYDREFITGDRTAEGFFRTRAGIEQAISRGLAYAPYADLVWCETSTPDLALAKRFADAVHAQFPGKLLAYNCSPSFNWKKNLTDQQIASFQDELSAMGYKYQFITLAGIHSMWFNMFDLAHAYAQGEGMKHYVEKVQQPEFASVDRGYTFASHQQEVGTGYFDKVTNIIQGGASSVTALTGSTEEQQF | soluble
20 | MSLAEVSDLAKAIRMEKNLVKEYRDTIGGYFRRFHPEHFVLSRDEFAVEGRKITIESVLAYAFLRADLDFVSAQARKVDPEDMKGSDDAPVNNDEVFGHPSTPSGHGIGGPARFKGGSTASVALISTPTPAPFWHPAAQSTLLCAHVGDSRILLCDTATGLAQPLTSDHHPSSPTESRRLRRYAPAGSMVSGDSFGEERIAGLANSRAFGDMKSKRIGVSAEPELTRVEMGPAQYSFLVLMTDGISGTLSDQEIVDVVKEARTPEDGARNIVKYATEVSNDGDNATCQVVRLGGWERRSEGEGHHHHHH | not soluble
